The results in this text go back to JP2003513027A.

“And” between values parts separate entries of the source, which are not always exact repeats. Equal values may be shown once.

The target of test [1] is Cu-OxLDL (copper-oxidised low density lipoprotein). Briefly: cell-based or functional assay.
Test [2] shares this target. Briefly: 125I-Cu-OxLDL binding to mouse peritoneal macrophages on ice, IK17 as competitor, % of control without competitor.
Test [3] addresses MDA-LDL (malondialdehyde-modified low density lipoprotein). Briefly: direct binding and competition assays with affinity-purified Fab.

The Kd is the equilibrium constant for the complex coming apart. With IK17 human monoclonal IgG Fab, the degradation of 125I-Cu-OxLDL by macrophages (TCA-soluble 125I in the medium), % inhibition in test [1] was 50% and 65%. For the same substance, the % inhibition of the binding of 125I-Cu-OxLDL to macrophages in test [2] is 70% and 85%. Besides, the Kd in test [3] is 37 nM.
